Test results taken from the DeepSol protein solubility set.

experiment: soluble on expression in E. coli; label from the status in PepcDB or PDB records

| Sequence | soluble on expression in E. coli |
| --- | --- |
| GAMDPMIIRGIRGARINNEIFNLGLKFQILNADVVATKKHVLHAINQAKTKKPIAKSFWMEILVRASGQRQIHEAIKIIGAKDGNVCLICEDEETFRKIYELIGGEIDDSVLEINEDKERLIREIFKIRGFGNVVERVLEKIALIELKKE | soluble |
| MSNVLTEIDSQYPYMTKNEKKIAKFILNSPQKVIKMRSQDLASLLDISTSSVIRFSKKITDGGFHDLKINISKYVPKASSIYNVELMNNESTESLRTKLHTRTTRALNHANNELNDKTIDQICHCLKRSETIFIYGFGASFVVATDLYQKLSRIGLNIQLVQETHIFATLLATHNSNDSVILITNNGTQSEMQSMVKVIDDYHIPIITITSTRDNPVAQASNIVLTYGKTDENEMHMGATTSLFAQMFTIDILYYRYVALNYHASLDFITQSKMALDNYRKHLSNINFKH | not soluble |
| MVLLVSQLYGCGDPLPEQRKLSHFDRIKAAGELRVLVRDKRFASSRPASGTAGFERDLLHGFASHLGVRLRFIPANARPVTERLLRGEADFAAMPSRSVAGEVLPTGGPPPFAGVTPVGGWVGALAGGLKGMARNSAQKFNPRMAFAEYSPRRVHTLKWAFPENAGVRGPRALAWMFAEPEGDHLAMMAEHFLRDMCERKGLDPLLDRHFGHNEGADPALDRNLRESYGRQLGKYRRTFVEAAARHGLDWRLLAAVAFQESRWDGHAVSAEGVRGMMMLTGATARELGVDRNNPGQSIHGGARYLKAVWSRLPEEIAEPDRTWFALSAYNLGPGRVETARRLAKKLGRDPNKWAEVKKTLPLVGAGRSGGRFRHPSARGKLTVQYVNRVRHYYDLLVRLEHHHHHH | soluble |
| MGSDKIHHHHHHMSGYKVFIVDDEADIALILKLQLEDAGYRTMRARDGIEALDALERESFDLVLLDIRMPRMDGIEVLERIRDRWPDLVVIMMTAHGSEDIAVEAMKKGAVDYISKPFSSDDMKKRVERAIQFNRTRLENERLQRVLDEERRKMGAILRGMADLLVAVDREGRIITINRAAEERFGIAADGVQNQPVELLLKTDIPGERLPCRVVLATGDPCLDVTYAVQAGGGMIPVLSSATPLKGAGGEMMGCVEIIRDISTLKALEREREDFVSMLSHDLKTPITAVVGSIDLVREGRIGPVNAEQRSYLDSAMESCAEMVDMIDTLLDVHRFEAGRMVMAARLEDLGPLMARTLGRFDSVARRAGIALVLTLPDYPLALSLDRNQFARLMGNLIANAIKFTQEGGEIEVSARLLNDPAELVGRIPRESYPDVPLPPLNPHLLITVRDTGVGIPADSLVSIFDRFVQARNRRLGKSTGTGLGLAFCRKVMDAHHGYIWAESVEGEGSSFNMLFPLTNEAYAATGG | not soluble |
| MAAFNDTLRAEIEEKKEDSVSERTTRNGKILNAKDEPEFGMNITPTTLFFKYPIGGIGYSFFTVTNTTSEKQAFKVKSSDNTWFRSKPSVGFIKSGEKVHVRVTFNSPDAGKERPERGSDNKNHVAIFHVAAGDAKTYKEAFAKKAADGVHHFFARHLAEPGAQVDKEADEKAPNGA | soluble |
| MNSKSRITAIGTHVPNQILSNNDLEKMIDTNDEWIVQRTGMKERRIASEDEYSSNLAIKAVENLCTTYKKNLEDVDCIIVATTTADYVFPSVACQIQQYFNIPHTMAFDLNATCAGFTYGLHVGNSLITSGSHKKVLVVATETLSKVTDYTDRTTCILFGDGAGAILLERDENKPSFIAYHMGTNGHGGIHLYRTNLSTTMNDTPLQTNEKIVQNGREVYKWATRTVPVGIKELLHTANMKMDDIDWFIPHSANLRMIESICEKSQIPIHKTLTSVEYMGNTSSVSIPLALDLARKKGKLNNGDTLLLYGFGGGLTHLGLIVEWDLS | not soluble |
| MKTIRYALKKEKEMMKKFIAPLLALLVSGCQIDPYTHAPTLTSTDWYDVGMEDAISGSAIKDDDAFSDSQADRGLYLKGYAEGQKKTCQTDFTYARGLSGKSFPASCNNVENASQLHEVWQKGADENASAIRLN | not soluble |
| SGTVHARSLEPLPSSGPDFGGLGEEAEFVEVEPEAKQEILENKDVVVQHVHFDGLGRTKDDIIICEIGDVFKAKNLIEVMRKSHEAREKLLRLGIFRQVDVLIDTCQGDDALPNGLDVTFEVTELRRLTGSYNTMVGNNEGSMVLGLKLPNLLGRAEKVTFQFSYGTKETSYGLSFFKPRPGNFERNFSVNLYKVTGQFPWSSLRETDRGMSAEYSFPIWKTSHTVKWEGVWRELGCLSRTASFAVRKESGHSLKSSLSHAMVIDSRNSSILPRRGALLKVNQELAGYTGGDVSFIKEDFELQLNKQLIFDSVFSASFWGGMLVPIGDKPSSIADRFYLGGPTSVRGFSMHSIGPQSEGDYLGGEAYWAGGLHLYTPLPFRPGQGGFGELFRTHFFLNAGNLCNLNYGEGPKAHIRKLAECIRWSYGAGIVLRLGNIARLELNYCVPMGVQTGDRICDGVQFGAGIRFL | soluble |
| AHHHHHHGSKILWAPWRIEYIRAPKHEGCIFCDFPRENRDRERLILYRGKHAFIIMNNYPYNPGHVMVAPYRHVASVEDLTDEEMLEIMKLAALIMKAIRKVMKPDGFNLGFNIGKVAGAGVDGHVHLHIVPRWNGDTNFMPVIADTKVIPESLEQAYEELKKALEEIENAE | soluble |
| MAHHHHHHMECGYSNEGKFHQVVLTIKEKIEKHDLSKWKDIVKPEEGPKYDEYFERLLREGNQEKDKNGKDTEGKDTHEKNTHDEGVHGKDDLSAEQVEKTPSHEYQQTEDEENPKKFQLNKEFFDKINNKEKFYFLLNIKEMMETSWLLAQKRLEGIKVEEKSKSVNVQDLLNYSQKIADTTCAPPECDNINDRIMHQEYYPNYHFLNFVNVEEIHLSKLFQLQKYSTVCFPPIITIQEGKDNMLVLHISCSTPHATIYYKVNDETNEQIYNTDEKPKIRKRKKINVYAWSVKNGHIKSRISCISKSYKVEEDDSFSLSDNFPNKDQGEQPSGFSKTGTECNAPGSKPSQITNVFKNLGFLLSRKKEKTEESSSNGDSSSEA | not soluble |
| QLTPTFYDNSCPNVSNIVRDTIVNELRSDPRIAASILRLHFHDCFVNGCDASILLDNTTSFRTEKDAFGNANSARGFPVIDRMKAAVESACPRTVSCADLLTIAAQQSVTLAGGPSWRVPLGRRDSLQAFLDLANANLPAPFFTLPQLKDSFRNVGLNRSSDLVALSGGHTFGKNQCRFIMDRLYNFSNTGLPDPTLNTTYLQTLRGLCPLNGNLSALVDFDLRTPTIFDNKYYVNLEEQKGLIQSDQELFSSPNATDTIPLVRSFANSTQTFFNAFVEAMDRMGNITPLTGTQGQIRLNCRVVNSNSLLHDMVEVVDFVSSM | soluble |
| MSLDSSRIKVVFWHEMKGPGQQAIDAYVKAFNHQQSKYEVVAEFEGGYNGVIQKILNTHGTAASPALFQSMDISTSQMYHSGFTTPMQKFIDRDHYDADQIIPGAKAIVMRDNQLLAMPFNASQTALYYNKRVLRQYGITPPPVDPTYDDITRVAKAIHDKSHGKVKGMTMEAYSWLFEQLVANAGVPVANHDNGHTGNATKVDFTSPAAINAMKWVKENIDYGDFMNFGSGGNAAANEAASFLAGHLGIFMQSSANTGQLYQVLKNDLGVTYFPRPNGQRANGIAVGGAALWIANDKPSAVQDGAWEFTKFLASAQTQADWQAKTGYLAVNKGAKDEPTLKKLFKKSPVLEVSGNQMLRTKPNNTNSGVFVDGWVPARTAIQTAMQQIFAGQDIRQSLQTAENTYNKVLESNNRANGREGHHHHHH | soluble |
| MAHHHHHHMRDRVSPGMRPYRNMCASSPCGRLSHWVVALLPLPLSGTRHLLLRIPITRTHTHTHAAHATDKSEVLSSVVAPPPPPGHAALTTVYFVLVVDVGTHLSLSLSMNRDGVEDGIYVNFFGFDGKAAMLACDMYGILPENLLYLPKKMFLQTGDESEQVLLVRYTMCERSRQGTFRTLLGAKSKLIAEGKVEALWEERRRVCQGAAPCPRFTEKQLEEAAAALDTDSESDEERQVDERGMRKPPPPLPPAPPFAPDGPRGEAAAEAAATENDESPTPVTDTPFSRAPDSEPLPPPPTQASSDAGGETRRGSGTTATNDNAALAVDAKRTTQQLPNDWTQYDVVNSLELPRAHKLCSQPPSIPQAYFPRLLETLSMEEKELAAAQKELSRYSKKSARRLRARQQERSNEPSAPGRSTSLPPLSSSPAHKPATTHLHQSVELRNRRELAAVHRVAQAHLRFLSERYEQGRSIDEKMEGVATLGTLEHMLKYQKSIGVAPEFEDRLQSKMVREESRAALQQQLRESEWERAYAIEEKAQHAQEVLERERERTKGIVAEALRTQRLITDWKQVAAHRQQETHLNGVLHRSAVRHAKADAYIETKRAATGMSRYYHDQQEVHRRQLRDTIRDMMISKKFSADGVADEDNDVVA | not soluble |
| MAHHHHHHMTVEDQVDHLLAPQRDGQENIQQRQEFNGFVHWGLLHGAHMVLEENQDTKRAHEFVNRYMRDIDLFEKWLEHPKVRAHIQKKFGIDMSAKFDKLMALTMAMYTRSKIQVYEDDPAGALKSLTASMSFITEGADLKKERHRKALGAVLVARGMIHCKLKSFHRADDDLTRALAFVKANRSATLYQLRAEAREALGHIDEARADEERAAQIWEEAEVITPGMDGAPRKFVT | soluble |
| MPESVAVTGGNGRIGKHVLDHLTTAGYRTVNLSRGKCDEAHSDAYIKTDLLDAGELYGALAKSDADTVVHLGMIPTPDQTPGYRTYESNVMSSYHVLEAAGELGIDTVALASSFSAIGGGFEPDLITVDYLPIDEDHRLTPSNPYAMGKQTLEIAADGFARRSTDAPETITSLRFPWVVDDDLAQETFVEADRTLAGLRNSDHFHTQRNTLCGYVHVTDAVALVEAAIEASFAGHERLWVSAPDTSAETPSAELAAELYSDADYRGQTGDDGSPYTALIDTTKAERLLGWEPTWNWRQLA | not soluble |
